Laboratory results: US20210346432A1 (Memorial Sloan Kettering, published 2021)
No end group written: not given here. *: point of attachment. Biotin = O=C1N[C@H]2[C@H](CS[C@H]2CCCCC(=O)*)N1

Key:
Assay in all cases: peptide ELISA on streptavidin plate
ET140-p29 = target: T1, ET140-p29 (human, cysteine pairing not given here)
T1 construct: also called peptide 29
T1 peptide: Biotin-SGSGSNTPPLTCQRYCNAS
Procedure: (§1) The peptides were coated onto Streptavidin plates at 2 ug/mL in PBST (PBS+0.05% Tween-20). After washing and blocking with 3% BSA. […] “mIgG1” used in all Examples represents that the variable region is fully human and the Fc part is mouse IgG1. Then HRP anti-mouse IgG detection antibody was added to each well. Finally, the color was developed using TMB substrate. A450 was recorded for data analysis.

ET140-p1 = target: T2, ET140-p1 (human)
T2 construct: also called peptide 1; ET140-pl
T2 peptide: Biotin-SGSGLQMAGQCSQNEYFDS
Procedure: as §1

ET140-p30 = target: T3, ET140-p30 (human, cysteine pairing not given here)
T3 construct: also called peptide 30
T3 peptide: Biotin-SGSGNTPPLTCQRYCNASV
Procedure: as §1

ET140-p39 = target: T4, ET140-p39 (human)
T4 construct: also called peptide 39
T4 peptide: Biotin-SGSGYCNASVTNSVKGTNA
Procedure: as §1

ET140-p22 = target: T5, ET140-p22 (human, cysteine pairing not given here)
T5 construct: also called peptide 22
T5 peptide: Biotin-SGSGPCQLRCSSNTPPLTC
Procedure: as §1

ET140-p23 = target: T6, ET140-p23 (human, cysteine pairing not given here)
T6 construct: also called peptide 23
T6 peptide: Biotin-SGSGCQLRCSSNTPPLTCQ
Procedure: as §1

ET140-p18 = target: T7, ET140-p18 (human, cysteine pairing not given here)
T7 construct: also called peptide 18
T7 peptide: Biotin-SGSGHACIPCQLRCSSNTP
Procedure: as §1

ET140-p27 = target: T8, ET140-p27 (human, cysteine pairing not given here)
T8 construct: also called peptide 27
T8 peptide: Biotin-SGSGCSSNTPPLTCQRYCN
Procedure: as §1

ET140-p19 = target: T9, ET140-p19 (human, cysteine pairing not given here)
T9 construct: also called peptide 19
T9 peptide: Biotin-SGSGACIPCQLRCSSNTPP
Procedure: as §1

ET140-p24 = target: T10, ET140-p24 (human, cysteine pairing not given here)
T10 construct: also called peptide 24
T10 peptide: Biotin-SGSGQLRCSSNTPPLTCQR
Procedure: as §1

ET140-p37 = target: T11, ET140-p37 (human)
T11 construct: also called peptide 37
T11 peptide: Biotin-SGSGQRYCNASVTNSVKGT
Procedure: as §1

ET140-p35 = target: T12, ET140-p35 (human, cysteine pairing not given here)
T12 construct: also called peptide 35
T12 peptide: Biotin-SGSGTCQRYCNASVTNSVK
Procedure: as §1

ET140-p38 = target: T13, ET140-p38 (human)
T13 construct: also called peptide 38
T13 peptide: Biotin-SGSGRYCNASVTNSVKGTN
Procedure: as §1

ET140-p14 = target: T14, ET140-p14 (human, cysteine pairing not given here)
T14 construct: also called peptide 14
T14 peptide: Biotin-SGSGDSLLHACIPCQLRCS
Procedure: as §1

ET140-p31 = target: T15, ET140-p31 (human, cysteine pairing not given here)
T15 construct: also called peptide 31
T15 peptide: Biotin-SGSGTPPLTCQRYCNASVT
Procedure: as §1

ET140-p34 = target: T16, ET140-p34 (human, cysteine pairing not given here)
T16 construct: also called peptide 34
T16 peptide: Biotin-SGSGLTCQRYCNASVTNSV
Procedure: as §1

ET140-p17 = target: T17, ET140-p17 (human, cysteine pairing not given here)
T17 construct: also called peptide 17
T17 peptide: Biotin-SGSGLHACIPCQLRCSSNT
Procedure: as §1

ET140-p36 = target: T18, ET140-p36 (human, cysteine pairing not given here)
T18 construct: also called peptide 36
T18 peptide: Biotin-SGSGCQRYCNASVTNSVKG
Procedure: as §1

ET140-p4 = target: T19, ET140-p4 (human)
T19 construct: also called peptide 4
T19 peptide: Biotin-SGSGAGQCSQNEYFDSLLH
Procedure: as §1

ET140-p6 = target: T20, ET140-p6 (human, cysteine pairing not given here)
T20 construct: also called peptide 6
T20 peptide: Biotin-SGSGQCSQNEYFDSLLHAC
Procedure: as §1

ET140-p5 = target: T21, ET140-p5 (human)
T21 construct: also called peptide 5
T21 peptide: Biotin-SGSGGQCSQNEYFDSLLHA
Procedure: as §1

ET140-p28 = target: T22, ET140-p28 (human, cysteine pairing not given here)
T22 construct: also called peptide 28
T22 peptide: Biotin-SGSGSSNTPPLTCQRYCNA
Procedure: as §1

binding result (ET140-p29): no binding (tested: 1 ug/mL)
binding result (ET140-p1): no binding (tested: 1 ug/mL)
binding result (ET140-p30): no binding (tested: 1 ug/mL)
binding result (ET140-p39): no binding (tested: 1 ug/mL)
binding result (ET140-p22): no binding (tested: 1 ug/mL)
binding result (ET140-p23): no binding (tested: 1 ug/mL)
binding result (ET140-p18): no binding (tested: 1 ug/mL)
binding result (ET140-p27): no binding (tested: 1 ug/mL)
binding result (ET140-p19): no binding (tested: 1 ug/mL)
binding result (ET140-p24): no binding (tested: 1 ug/mL)
binding result (ET140-p37): no binding (tested: 1 ug/mL)
binding result (ET140-p35): no binding (tested: 1 ug/mL)
binding result (ET140-p38): no binding (tested: 1 ug/mL)
binding result (ET140-p14): no binding (tested: 1 ug/mL)
binding result (ET140-p31): no binding (tested: 1 ug/mL)
binding result (ET140-p34): no binding (tested: 1 ug/mL)
binding result (ET140-p17): no binding (tested: 1 ug/mL)
binding result (ET140-p36): no binding (tested: 1 ug/mL)
binding result (ET140-p4): no binding (tested: 1 ug/mL)
binding result (ET140-p6): no binding (tested: 1 ug/mL)
binding result (ET140-p5): no binding (tested: 1 ug/mL)
binding result (ET140-p28): no binding (tested: 1 ug/mL)
B1: ET140-153 mIgG1 (antibody, V domains shown)
VH: QVQLVQSGAEVKKPGSSVKVSCKASGGTFSSYAISWVRQAPGQGLEWMGRIIPILGIANYAQKFQGRVTITADKSTSTAYMELSSLRSEDTAVYYCARGGYYSHDMWSEDWGQGTLVTVSS
VL: LPVLTQPPSASGTPGQRVTISCSGRSSNIGSNSVNWYRQLPGAAPKLLIYSNNQRPPGVPVRFSGSKSGTSASLAISGLQSEDEATYYCATWDDNLNVHYVFGTGTKVTVLG
notes: also called ET140-3 mIgG1; ET140-3
